According to the supplement of paper PMC11246515:
± gives the standard deviation of the averaged measurements.

Assay: total protein half-life in vivo (active degradation + dilution); higher = more stable protein
[1] = E. coli NCM3722 delta-clpP delta-lon delta-hslV, growth: N-lim chemostat, doubling time 6 h
[2] = E. coli NCM3722 delta-clpP, growth: N-lim chemostat, doubling time 6 h
[3] = E. coli NCM3722 delta-hslV, growth: N-lim chemostat, doubling time 6 h
[4] = E. coli NCM3722 delta-lon, growth: N-lim chemostat, doubling time 6 h
[5] = wild type E. coli NCM3722, growth: C-lim chemostat, doubling time 3 h
[6] = wild type E. coli NCM3722, growth: C-lim chemostat, doubling time 6 h
[7] = wild type E. coli NCM3722, growth: C-lim chemostat, doubling time 12 h
[8] = wild type E. coli NCM3722, growth: N-lim chemostat, doubling time 6 h
[9] = wild type E. coli NCM3722, growth: P-lim chemostat, doubling time 6 h
[10] = wild type E. coli NCM3722, growth: P-lim chemostat, doubling time 12 h
[11] = E. coli NCM3722 delta-smpB, growth: N-lim chemostat, doubling time 6 h
[12] = wild type E. coli NCM3722, growth: N-lim chemostat, doubling time 12 h

Sequence: MMSAPKITFIGAGSTIFVKNILGDVFHREALKTAHIALMDIDPTRLEESHIVVRKLMDSAGASGKITCHTQQKEALEDADFVVVAFQIGGYEPCTVTDFEVCKRHGLEQTIADTLGPGGIMRALRTIPHLWQICEDMTEVCPDATMLNYVNPMAMNTWAMYARYPHIKQVGLCHSVQGTAEELARDLNIDPATLRYRCAGINHMAFYLELERKTADGSYVNLYPELLAAYEAGQAPKPNIHGNTRCQNIVRYEMFKKLGYFVTESSEHFAEYTPWFIKPGREDLIERYKVPLDEYPKRCVEQLANWHKELEEYKKASRIDIKPSREYASTIMNAIWTGEPSVIYGNVRNDGLIDNLPQGCCVEVACLVDANGIQPTKVGTLPSHLAALMQTNINVQTLLTEAILTENRDRVYHAAMMDPHTAAVLGIDEIYALVDDLIAAHGDWLPGWLHR
- total protein half-life in vivo [1]: 4.14 h
- total protein half-life in vivo [2]: 2.52 ± 0.52 h
- total protein half-life in vivo [3]: 1.5 h
- total protein half-life in vivo [4]: 2.73 h
- total protein half-life in vivo [5]: 3.25 ± 0.39 h
- total protein half-life in vivo [6]: 4.25 ± 0.26 h
- total protein half-life in vivo [7]: 8.03 ± 1.2 h
- total protein half-life in vivo [8]: 1.97 h
- total protein half-life in vivo [9]: 4.92 ± 0.48 h
- total protein half-life in vivo [10]: 9.8 ± 0.35 h

Sequence: MMSGEHTLKAVRGSFIDVTRTIDNPEEIASALRFIEDGLLLIKQGKVEWFGEWENGKHQIPDTIRVRDYRGKLIVPGFVDTHIHYPQSEMVGAYGEQLLEWLNKHTFPTERRYEDLEYAREMSAFFIKQLLRNGTTTALVFGTVHPQSVDALFEAASHINMRMIAGKVMMDRNAPDYLLDTAESSYHQSKELIERWHKNGRLLYAITPRFAPTSSPEQMAMAQRLKEEYPDTWVHTHLCENKDEIAWVKSLYPDHDGYLDVYHQYGLTGKNCVFAHCVHLEEKEWDRLSETKSSIAFCPTSNLYLGSGLFNLKKAWQKKVKVGMGTDIGAGTTFNMLQTLNEAYKVLQLQGYRLSAYEAFYLATLGGAKSLGLDDLIGNFLPGKEADFVVMEPTATPLQQLRYDNSVSLVDKLFVMMTLGDDRSIYRTYVDGRLVYERN
- total protein half-life in vivo [1]: 5.05 ± 0.34 h
- total protein half-life in vivo [2]: 3.95 ± 0.22 h
- total protein half-life in vivo [3]: 4.26 ± 0.28 h
- total protein half-life in vivo [4]: 4.12 ± 0.085 h
- total protein half-life in vivo [11]: 3.79 ± 0.042 h
- total protein half-life in vivo [5]: 3.26 ± 0.59 h
- total protein half-life in vivo [6]: 6.35 ± 1.1 h
- total protein half-life in vivo [7]: 10.2 ± 0.27 h
- total protein half-life in vivo [8]: 3.78 ± 0.16 h
- total protein half-life in vivo [12]: 7.14 ± 1.4 h
- total protein half-life in vivo [9]: 5.87 h

Sequence: MMVTVVSNYCQLSQTQLSQTFAEKFTVTEELLQSLKKTALSGDEESIELLHNIALGYDKFGKEAEDILYHIVRTPTNETLSIIRLIKNACLKLYNLAHIATNSPLKSHDSDDLLFKKLFSPSKLMTIIGDEIPLISEKQSLSKVLLNDENNELSDGTNFWDKNRQLTTDEIACYLQKIAANAKNTQVNYPTGLYVPYSTRTHLEDALNENIKSDPSWPNEVQLFPINTGGHWILVSLQKIVNKKNNKLQIKCVIFNSLRALGYDKENSLKRVINSFNSELMGEMSNNNIKVHLNEPEIIFLHADLQQYLSQSCGAFVCMAAQEVIEQRESNSDSAPYTLLKNHADRFKKYSAEEQYEIDFQHRLANRNCYLDKYGDANINHYYRNLEIKHSQPKNRASGKRVS
- total protein half-life in vivo [1]: 6.83 h

Sequence: MNAEKSPVNHNVDHEEIAKFEAVASRWWDLEGEFKPLHRINPLRLGYIAERAGGLFGKKVLDVGCGGGILAESMAREGATVTGLDMGFEPLQVAKLHALESGIQVDYVQETVEEHAAKHAGQYDVVTCMEMLEHVPDPQSVVRACAQLVKPGGDVFFSTLNRNGKSWLMAVVGAEYILRMVPKGTHDVKKFIKPAELLGWVDQTSLKERHITGLHYNPITNTFKLGPGVDVNYMLHTQNK
- total protein half-life in vivo [1]: 4.74 ± 0.1 h
- total protein half-life in vivo [2]: 4.09 ± 0.23 h
- total protein half-life in vivo [3]: 3.48 ± 0.11 h
- total protein half-life in vivo [4]: 4.02 ± 0.45 h
- total protein half-life in vivo [11]: 3.46 ± 0.082 h
- total protein half-life in vivo [5]: 2.45 ± 0.027 h
- total protein half-life in vivo [6]: 4.96 ± 0.83 h
- total protein half-life in vivo [7]: 6.694 ± 0.058 h
- total protein half-life in vivo [8]: 3.85 ± 0.49 h
- total protein half-life in vivo [12]: 5.66 ± 0.72 h
- total protein half-life in vivo [9]: 3.13 ± 0.38 h
- total protein half-life in vivo [10]: 5.66 ± 0.45 h

Sequence: MNAIISPDYYYVLTVAGQSNAMAYGEGLPLPDREDAPHPRIKQLARFAHTHPGGPPCHFNDIIPLTHCPHDVQDMQGYHHPLATNHQTQYGTVGQALHIARKLLPFIPDNAGILIVPCCRGGSAFTAGSEGTYSERHGASHDACRWGTDTPLYQDLVSRTRAALAKNPQNKFLGACWMQGEFDLMTSDYASHPQHFNHMVEAFRRDLKQYHSQLNNITDAPWFCGDTTWYWKENFPHSYEAIYGNYQNNVLANIIFVDFQQQGERGLTNAPDEDPDDLSTGYYGSAYRSPENWTTALRSSHFSTAARRGIISDRFVEAILQFWRER
- total protein half-life in vivo [1]: 5.07 ± 0.92 h
- total protein half-life in vivo [2]: 3.59 ± 0.15 h
- total protein half-life in vivo [3]: 3.413 ± 0.026 h
- total protein half-life in vivo [11]: 3.46 ± 0.15 h
- total protein half-life in vivo [5]: 3.16 h
- total protein half-life in vivo [7]: 8.77 ± 0.83 h
- total protein half-life in vivo [8]: 3.38 h
- total protein half-life in vivo [9]: 5.15 ± 0.32 h
- total protein half-life in vivo [10]: 13.2 h

Sequence: MNALTAVQNNAVDSGQDYSGFTLTPSAQSPRLLELTFTEQTTKQFLEQVAEWPVQALEYKSFLRFRVAKILDDLCANQLQPLLLKTLLNRAEGALLINAVGVDDVKQADEMVKLATAVAHLIGRSNFDAMSGQYYARFVVKNVDNSDSYLRQPHRVMELHNDGTYVEEITDYVLMMKIDEQNMQGGNSLLLHLDDWEHLDNYFRHPLARRPMRFAAPPSKNVSKDVFHPVFDVDQQGRPVMRYIDQFVQPKDFEEGVWLSELSDAIETSKGILSVPVPVGKFLLINNLFWLHGRDRFTPHPDLRRELMRQRGYFAYASNHYQTHQ
- total protein half-life in vivo [1]: 5.49 ± 0.24 h
- total protein half-life in vivo [2]: 1.73 ± 0.11 h
- total protein half-life in vivo [5]: 0.794 ± 0.23 h
- total protein half-life in vivo [6]: 1.18 ± 0.23 h
- total protein half-life in vivo [7]: 0.791 ± 0.35 h
- total protein half-life in vivo [8]: 1.3 h
- total protein half-life in vivo [12]: 1.1 ± 0.12 h
- total protein half-life in vivo [10]: 1.17 ± 0.72 h

Sequence: MNDAVITLNGLEKRFPGMDKPAVAPLDCTIHAGYVTGLVGPDGAGKTTLMRMLAGLLKPDSGSATVIGFDPIKNDGALHAVLGYMPQKFGLYEDLTVMENLNLYADLRSVTGEARKQTFARLLEFTSLGPFTGRLAGKLSGGMKQKLGLACTLVGEPKVLLLDEPGVGVDPISRRELWQMVHELAGEGMLILWSTSYLDEAEQCRDVLLMNEGELLYQGEPKALTQTMAGRSFLMTSPHEGNRKLLQRALKLPQVSDGMIQGKSVRLILKKEATPDDIRHADGMPEININETTPRFEDAFIDLLGGAGTSESPLGAILHTVEGTPGETVIEAKELTKKFGDFAATDHVNFAVKRGEIFGLLGPNGAGKSTTFKMMCGLLVPTSGQALVLGMDLKESSGKARQHLGYMAQKFSLYGNLTVEQNLRFFSGVYGLRGRAQNEKISRMSEAFGLKSIASHATDELPLGFKQRLALACSLMHEPDILFLDEPTSGVDPLTRREFWLHINSMVEKGVTVMVTTHFMDEAEYCDRIGLVYRGKLIASGTPDDLKAQSANDEQPDPTMEQAFIQLIHDWDKEHSNE [P0A9U1]
- total protein half-life in vivo [1]: 5.78 ± 0.23 h
- total protein half-life in vivo [2]: 6.03 ± 0.77 h
- total protein half-life in vivo [3]: 6.28 ± 0.41 h
- total protein half-life in vivo [4]: 6.03 ± 0.23 h
- total protein half-life in vivo [11]: 5.83 ± 0.5 h
- total protein half-life in vivo [5]: 3.32 ± 0.15 h
- total protein half-life in vivo [7]: 11.8 ± 2.2 h
- total protein half-life in vivo [8]: 6.05 ± 0.092 h
- total protein half-life in vivo [12]: 12.6 ± 1.7 h
- total protein half-life in vivo [9]: 6.15 ± 0.14 h
- total protein half-life in vivo [10]: 12.3 ± 0.47 h
